Our source for the Km values is PMC8126724, “Infant-Associated Bifidobacterial β-Galactosidases and Their Ability to Synthesize Galacto-Oligosaccharides” (Frontiers in Microbiology, 2021).

Substrate in data set [1]: O=[N+]([O-])c1ccccc1O[C@@H]1O[C@H](CO)[C@H](O)[C@H](O)[C@H]1O
As to the kind of experiment: o-nitrophenol release, A420. The class given is biochemical, Bifidobacterium breve. The note with it: 0.1 M sodium acetate pH 6.5, 40 °C, unit mM, not in table. The text has this:
o-nitrophenol release, A420 on BgaA

Substrate in data set [2]: O=[N+]([O-])c1ccccc1O[C@@H]1O[C@H](CO)[C@H](O)[C@H](O)[C@H]1O
As to the kind of experiment: o-nitrophenol release, A420. The format is biochemical, Bifidobacterium breve. The following applies: 0.1 M sodium acetate pH 6.5, 40 °C, unit mM, not in table. The text has this: o-nitrophenol release, A420 on BgaB
The source holds these as a separate data set.

B1: BgaA (Bifidobacterium breve UCC2003) (protein)
chain: MTNLQSAQQFSQAWLTDPRVFAVNRLAAHSSHKFYDHAPQCGEAMDLKQSLDGQWRVQMVDLADLADNELAEAAFAQPGYDAAGFSPIEVPSALETKGFLNHQYVNQQYPWSGHESPVAPDVPKHNHVALYRHEFSLEPKAAAVLEANKTAADDAAKRRVTLIFQGAATAIVVWLNGAFIGYAEDSFTPSEFDVTDVLRDGVNTLAVACFEFSSASWLEDQDFWRLHGIFRSVELEAQPLVHVNDLRVLADYDHTTGEGSLDVVALVRNAGTAAAVAATVLDAAGNTVWHSKLTAGADAETLTVKANVGKVNPWSAEEPTLYTLQVVATDAAGQVIEAALQRIGFRHFAIEDGLMKLNGKRIVFKGVDRHEFDARTGRTIAEADMIEDIHSFKRLNINAVRTSHYPNETRWYELCDEYGIYVLDETNLETHGSWTDPGDVFQPARAIPGSKDEWRAACVDRTASMVRRDYNHPSVVIWSLGNEAFGGDVFYSMRDFVHENDPFRPVHYEGTFNDPEFSAATDIMSRMYAKPDEIVKLYLGEDGKKPYISCEYSHSMGNSTGGLHLYTELERYPLYQGGFIWDYVDQALWQDCGDGTERLAYGGDFEDRPNDYEFSGDGVMFADRTPSPKAQEVKQLYANVKLVPDESGVTITNDNLFISTASSLFTARVLVDGVECWHANYRFDVPAGETVREPIAFPKVTDLVALSGSAEVTYEVDQRLAEATDWAPAGYELTFGQYVAAVSFDDGAADAVVAGDAEVAADGFNAGIHTDFGEVLLSKTQGGMVSFKRDGREMVIRRPNLTTFRALTDNDRGNGSGFERAQWMAAGRYARVTGTSVEETADGKGLKATYSYELADAKHTPVTVHYEVDAALRVHLTVKYPGEADAATLPAFGLEWILPKQYDRLRFYGLGPEETYADRLHGAKLGVFSRTAAEDCAPYLLPQETGNHEQVRWAEITDEYGHGMRVTAAGGTRFATSLLPYSSLMLEDALHQNELPKPRHTFLRLLAAQMGVGGDDTWGAPVHDEFQVPADQPLKLDVTLELI
notes: His6-tagged, expressed in Lactococcus lactis (pNZ8150), Ni-purified; dimer
In general, Km refers to the concentration of substrate that gives half-maximal velocity. As to B1, the Km in data set [1] was 10.8 mM.

B2: BgaB (Bifidobacterium breve UCC2003) (protein)
chain: MEHREFKWPQPLAGGKPRIWYGGDYNPDQWPEEVWDEDVALMQKAGVNLVSVAIFSWAKLEPEEGVYDFDWLDRVIDKLGKAGIAVDLASGTASPPMWMTQAHPEILWVDYRGDVCQPGARQHWRATSPVFLDYALNLCRKMAEHYKDNPYVVSWHVSNEYGCHNRFDYSEDAERAFQKWCEKKYGTIDAVNDAWGTAFWAQRMNNFSEIIPPRFIGDGNFMNPGKLLDWKRFSSDALLDFYKAERDALLEIAPKPQTTNFMVSAGGAGIDYDKWGYDVDFVSNDHYFTPGEAHFDELAYSASLCDGIARKNPWFLMEHSSSAVNWRPINYRVEPGELVRDSLAHLAMGADAICYFQWRQSKAGAEKWHSSMVPHAGPDSQIFRDVCELGADLNKLADEGLLSTKLVKSKVAVVFDYESQWATEHTATPTQEVRHWTEPLAWFRALADNGLTADVVPVRGPWDEYEAVVLPSLTILSEETTRRVREYVANGGKLFVTYYTGLVDDKDHVWLGGYPGSIRDVVGVRVEEFAPMGNDFPGAMDHLDLDNGTVAHDFADVITSVADTAHVVASFKADKWTGFDGAPAITINDFGDGKAAYVGARLGREGLAKSLPALLEELGIETSAEDDRGEVLRVERADETGENHFVFLFNRTHDVAIVDVDGEPLVASLAQVNESEHTAAIQPNGVLVVKL
notes: His6-tagged, expressed in Lactococcus lactis (pNZ8150), Ni-purified; trimer
Consider B2, for which the Km in data set [2] was 8.607 mM.
